From patent publication US20220177578A1 (MAGENTA THERAPEUTICS, published 2022)

Biological target: T1, Human CD117 antigen (recombinant CD117 ectodomain) (human, UniProt P10721 26-520)
T1 construct: also called c-kit; ectodomain of human CD117
Assay: chemical cross-linking, High-Mass MALDI MS and nLC-Orbitrap MS of the CD117/Ab67 complex
Method: A sample of Ab67 was diluted in distilled water to a concentration of 2.7 mg/mL. 1 μL of the diluted Ab67 was then mixed with 1 μL of a matrix composed of a re-crystallized sinapinic acid matrix (10 mg/mL) in acetonitrile/water (1:1, v/v), TFA (0.1% (K200 MALDI Kit). The mixture was submitted to cross-linking using CovalX's K200 MALDI MS analysis kit. The protein solutions were mixed with 1 μl of K200 Stabilizer reagent (2 mg/ml) and incubated at room temperature. After the incubation time (180 minutes) the samples were prepared for MALDI analysis. The samples were analyzed by High-Mass MALDI MS immediately after crystallization at room temperature.
After digestion, formic acid 1% final was added to the solution. After proteolysis, 10 ul of the peptide solution generated by proteolysis were loaded onto a nano-liquid chromatography system (Ultimate 3000-RSLC). The cross-linked peptides were analyzed using Xquest version 2.0 and Stavrox 3.6. software. nLC-LTQ-Orbitrap MS/MS analysis using a nLC Ultimate 3000-RSLC system in line with a LTQ-Orbitrap mass spectrometer (Thermo Scientific) was performed.

T1 sequence (P10721 other isoform, or with tags, fused parts or gaps): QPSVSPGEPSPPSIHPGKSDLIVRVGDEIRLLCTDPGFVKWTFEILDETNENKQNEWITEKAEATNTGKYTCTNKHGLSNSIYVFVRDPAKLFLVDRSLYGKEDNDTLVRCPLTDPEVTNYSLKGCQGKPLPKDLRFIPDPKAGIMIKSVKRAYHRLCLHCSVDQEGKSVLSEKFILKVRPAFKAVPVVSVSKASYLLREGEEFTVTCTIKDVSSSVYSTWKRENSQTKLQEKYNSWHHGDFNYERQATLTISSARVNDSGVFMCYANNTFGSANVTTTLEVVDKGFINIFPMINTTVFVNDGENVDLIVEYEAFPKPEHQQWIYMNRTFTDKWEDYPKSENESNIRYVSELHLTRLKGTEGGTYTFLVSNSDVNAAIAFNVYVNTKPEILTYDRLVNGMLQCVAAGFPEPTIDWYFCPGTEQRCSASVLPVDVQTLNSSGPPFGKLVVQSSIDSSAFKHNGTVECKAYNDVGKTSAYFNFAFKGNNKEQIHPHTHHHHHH

B1: Antibody 67 (Ab67), human anti-CD117 antibody (antibody, V domains shown)
VH: EVQLVESGGGLVQPGGSLRLSCAASGFTFSDADMDWVRQAPGKGLEWVGRTRNKAGSYTTEYAASVKGRFTISRDDSKNSLYLQMNSLKTEDTAVYYCAREPKYWIDFDLWGRGTLVTVSS
VL: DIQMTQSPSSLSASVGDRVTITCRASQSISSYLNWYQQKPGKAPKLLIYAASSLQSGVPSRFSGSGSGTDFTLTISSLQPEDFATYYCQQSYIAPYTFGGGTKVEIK
notes: also called Antibody HC-67/LC-67
- binding result: binds
